Experiments:
AMPK = AMPK phosphorylation immunoblot in HepG2 cells; type: cell-based, human
Experimental: (§1) Mouse myoblast cells (C2C12) were maintained in high glucose DMEM/high, 10% fetal bovine serum with penicillin/streptomycin. pRK5-Dj1-HA plasmid was purchased from Addgene (#29396). Seeded cells were cultured in 6-well plates for 24 hours prior to transfection. Transfections were performed using Lipofectamine 2000 and PLUS reagent according to manufacturer instructions (Invitrogen, Carlsbad, CA). Human HepG2 cells were cultured in DMEM/low media containing 10% fetal bovine serum with penicillin/streptomycin. Mouse AML12 cells were maintained in DMEM/F12, ITS supplement (Gibco, USA), 40 ng/ml dexamethasone, and 10% fetal bovine serum with penicillin/streptomycin. For in vitro experiments, HepG2 cells were treated with or without recombinant human Dj1 protein (Novus, NBC1-18334) in serum-free media containing 25 mM glucose, 200 μM palmitic acid, and 0.25% bovine serum albumin for an indicated time.

ACC = ACC phosphorylation immunoblot in HepG2 cells; type: cell-based, human
Experimental: as §1

HepG2 cells [1] = assay: Fatty acid oxidation and lipid content in HepG2 cells; type: cell-based, human
Experimental: as §1
AMPK signaling is vital for lipid metabolism in the liver (19). […] These findings indicate that Dj1 could enhance lipid metabolism and ameliorate HFD-induced hepatic steatosis. rDj1 was tail-vein injected into mice fed with a chow diet (NC) or high-fat diet (HFD) daily for 5 days. […] Although body weights and fasting blood glucose levels of HFD-fed mice were unchanged during the rDj1 administration, rDj1 indeed enhanced glucose homeostasis and insulin action, as evidenced by improving glucose tolerance tests and insulin tolerance tests, respectively (FIGS. 4K-4M, 4U-4Z).

mitochondrial complex I = assay: Complex I activity of isolated liver mitochondria from treated HFD-fed mice; type: in vivo, mouse
HFD-fed mice = assay: rDj1 or tDj1 intravenous every other day for 14 days in HFD-fed mice; type: in vivo, mouse
Experimental: C57BL/10cSn-Dmd^mdx/J (001801, mdx) and C57BL/10ScSnJ (000476, WT) mice were ordered directly from The Jackson Laboratory. Different ages of mdx and WT mice were obtained. Animals were weaned 21 days after birth and had free access to food and water and were housed on 12 h light-dark cycle. C57BL/6J males were introduced to a normal diet (NC, Research Diets D15100601) or high-fat diet (HFD, Research Diets D12331), and maintained on a diet for the indicated time. The HFD diet derives 58% of its kilocalories (kcal) from fat (soybean and coconut oil), 25.5% from carbohydrates (sucrose and maltodextrin), and 16.4% from protein (casein). NASH model mice were fed for up to 28 weeks with the NASH diet (Envigo, TD.120528) and 42% fructose (Sigma, F0127) in the water (1,2). The NASH diet is composed of 405.36 g/Kg sucrose and 12.5 g/Kg cholesterol. Recombinant mouse Dj1 protein (Novus, NBP2-59523) or truncated mouse Dj1 (tDj1, GenScript) protein was intravenously injected every day for 5 days or every other day for 2 weeks. Skeletal muscle-specific Park7 knockout mice were generated by crossing Park7 flox mice with Myl1-cre mice (JAX, #024713). Mice were raised in microisolator cages with a 12 h: 12 h light: dark cycle. All procedures were performed in accordance with the Guide for Care and Use of Laboratory Animals of the National Institutes of Health, and were approved by the Animal Subjects Committee of the University of California, Los Angeles.
Cryosections (10-μm thick transverse sections of frozen muscle cut in a cryostat (Leica) at −20° C.) were subjected to hematoxylin & eosin (H&E) staining (10, 54). Liver tissues were fixed in phosphate-buffered 10% formalin and embedded in paraffin wax. Sections were cut and stained with H&E.
Mouse serum Dj1 and CK were measured by mouse Park7/DJ-1 DuoSet ELISA (DY8136, R&D systems) and mouse CKMB/Creatine Kinase MB ELISA Kit (LS-F5745, LSBio) respectively. Mouse Serum AST and ALT were measured by AST activity assay kit (Sigma, MAK055) and ALT activity assay kit (Sigma, MAK052) respectively.
Plasma and liver NEFA, Cholesterol, and Triglyceride were analyzed by their respective kits (FUJIFILM Wako Diagnostics)
About 80 mg of liver samples were homogenized and sonicated in PBS (pH 7.4) for lipid extraction. An internal standard mixture (ISTD) and CHCl3:methanol (2:1) were added to the samples before being vortexed, mixed, sonicated, and centrifuged. The supernatant containing the lipid was removed and dried, the lipids were resuspended in ethanol and then sonicated.
Dj1 is a highly conserved protein that is ubiquitously expressed in most mammalian tissues. It belongs to the Dj1/ThiJ/PfpI family chaperones, and its expression is induced by oxidative stress (20,21). To determine whether the PfpI domain of Dj1 exerts a similar role as the full-length Dj1 protein (rDj1) in liver cells, truncated Dj1 (tDj1) comprising of only the PfpI domain was purified (FIG. 5O). HFD-fed mice were intravenous injected with rDj1 or tDj1 every other day for 14 days.

HepG2 cells [2] = assay: Reactive oxygen species in HepG2 cells; type: cell-based, human; conditions: baseline and TNFα-induced
Description: (§2) A wide variety of mechanisms activate the JNK pathway. […] Moreover, ASK1 is activated by various stresses, including oxidative stress, ER stress, calcium overload, and receptor-mediated inflammatory signals such as TNFα and lipopolysaccharide (LPS) (26,27). rDj1 administration suppressed both baseline and TNFα-induced ROS levels in HepG2 cells, which may contribute to reducing liver inflammation (FIG. 6F).

[3] = tested on: liver inflammation, de-novo lipogenesis and gluconeogenesis genes; assay: Gene expression in the liver of NC- or HFD-fed mice; type: in vivo, mouse
Experimental: as §2
(§3) Also, the transcriptional activity of PPARα was determined to be elevated by Dj1 administration in the liver of both NC- and HFD-fed mice (FIGS. 6L, 6M, 6S, 6T). Furthermore, Dj1 elevated plasma β-hydroxybutyrate (a ketone body) levels in NC-fed mice but not in HFD-fed mice (FIG. 6N, 6U).

PPARα = PPARα expression and transcriptional activity in the liver; type: in vivo, mouse; conditions: liver of NC-fed mice
Experimental: as §3

B1: rDj1: full-length recombinant Dj1 protein; mouse protein (Novus, NBP2-59523) injected in mice, human protein used in HepG2 cells (protein, UniProt Q99LX0 1-189, looked up)
chain: MASKRALVILAKGAEEMETVIPVDVMRRAGIKVTVAGLAGKDPVQCSRDVMICPDTSLEDAKTQGPYDVVVLPGGNLGAQNLSESPMVKEILKEQESRKGLIAAICAGPTALLAHEVGFGCKVTTHPLAKDKMMNGSHYSYSESRVEKDGLILTSRGPGTSFEFALAIVEALVGKDMANQVKAPLVLKD
modifications: full-length
notes: full-length recombinant Dj1 protein; mouse protein (Novus, NBP2-59523) injected in mice, human protein used in HepG2 cells
- phosphorylation of AMPK (AMPK): elevated
- phosphorylation of ACC (ACC): elevated
- Oil Red O staining (neutral lipids) (HepG2 cells [1]): reduced
- fatty acid oxidation (HepG2 cells [1]): significantly promoted
- triacylglycerol (TG) levels (HepG2 cells [1]): reduced
- mitochondrial complex I activity (mitochondrial complex I): Enhanced
- level of TG in the liver (HFD-fed mice): significantly reduced
- liver histology, lipid accumulation (HFD-fed mice): less lipid accumulation
- plasma ALT levels (HFD-fed mice): reducing
- plasma AST levels (HFD-fed mice): reducing
- ROS levels (HepG2 cells [2]): suppressed
- reduction of gene expression of de-novo lipogenesis ([3]; liver of HFD-fed mice): blunted
- reduction of gene expression of gluconeogenesis ([3]; liver of HFD-fed mice): blunted
- gene expression of de-novo lipogenesis ([3]; liver of NC-fed mice): reduced
- gene expression of gluconeogenesis ([3]; liver of NC-fed mice): reduced
- transcriptional activity of PPARα (PPARα): elevated
